In patent publication US12590147:

What was measured:
[1] = target: mix of 3 carriers alone (BSA + OVA + KLH) (bovine; keyhole limpet) (UniProt P02769); assay: monoclonal phage ELISA, negative control coating with carriers alone, replicate 2
[2] = target: mix of 3 carriers alone (BSA + OVA + KLH) (bovine; keyhole limpet) (UniProt P02769); assay: monoclonal phage ELISA, negative control coating with carriers alone, replicate 1

Chain of mix of 3 carriers alone (BSA + OVA + KLH) (bovine; keyhole limpet) (P02769 25-607, chain 1 of 2): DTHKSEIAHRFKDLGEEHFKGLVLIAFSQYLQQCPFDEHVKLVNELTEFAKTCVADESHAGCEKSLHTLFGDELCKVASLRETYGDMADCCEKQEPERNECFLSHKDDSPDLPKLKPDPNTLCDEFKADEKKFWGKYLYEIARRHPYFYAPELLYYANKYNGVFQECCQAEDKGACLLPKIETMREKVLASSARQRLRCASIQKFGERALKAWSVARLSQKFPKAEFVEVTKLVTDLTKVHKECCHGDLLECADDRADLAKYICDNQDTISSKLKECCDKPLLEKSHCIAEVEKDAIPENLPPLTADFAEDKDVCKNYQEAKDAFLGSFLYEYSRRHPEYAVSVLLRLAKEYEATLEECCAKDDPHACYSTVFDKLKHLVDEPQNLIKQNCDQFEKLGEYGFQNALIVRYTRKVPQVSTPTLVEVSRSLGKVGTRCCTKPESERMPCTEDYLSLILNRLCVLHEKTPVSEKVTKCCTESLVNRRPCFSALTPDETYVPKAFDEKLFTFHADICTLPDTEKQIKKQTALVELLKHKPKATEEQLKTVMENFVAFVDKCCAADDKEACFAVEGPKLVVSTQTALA
Chain of mix of 3 carriers alone (BSA + OVA + KLH) (bovine; keyhole limpet) (P01012 2-386, chain 2 of 2, further chain): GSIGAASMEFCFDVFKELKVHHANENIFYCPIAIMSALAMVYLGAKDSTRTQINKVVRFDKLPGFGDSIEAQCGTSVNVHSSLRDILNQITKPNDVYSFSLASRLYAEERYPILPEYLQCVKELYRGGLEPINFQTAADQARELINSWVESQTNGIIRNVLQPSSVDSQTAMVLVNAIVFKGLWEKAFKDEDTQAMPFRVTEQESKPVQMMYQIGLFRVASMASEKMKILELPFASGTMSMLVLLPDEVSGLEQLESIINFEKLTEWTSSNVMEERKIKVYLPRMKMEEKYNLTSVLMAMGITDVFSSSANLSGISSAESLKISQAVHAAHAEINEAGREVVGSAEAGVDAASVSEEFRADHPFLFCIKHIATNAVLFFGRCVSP

B1: R4P1-C1 (phage Fab clone) (Fab, V domains shown)
VH: QVQLQQSGPGLVKPSQTLSLTCAISGDSVSSNSAAWNWIRQSPSRGLEWLGRTYYRSKWYNDYAVSVKSRITINPDTSKNQFSLQLNSVTPEDTAVYYCARDDYDPVGMYAFDIWGQGTLVTVSS
VL: LPVLTQPPSASGTPGQRVTISCSGSSSNIGSNTVNWYQQLPGTAPKLLIYRNTQRPSGVPDRFSGSKSGTSASLAISGLQSEDEADYYCEAWDDSMRGAAFGGGTQLTVL
[1]
  ELISA signal: 0.06
[2]
  ELISA signal: 0.06
